Assay [1] concerns the target T1, p53 R175H (Homo sapiens, UniProt P04637, R175H).
T1 construct: expression of full-length point mutants (hereinafter identified also as mut-p53 or mutant p53); expressed in transfected cells; host or cells: H1299 (p53-null)
As to the kind of experiment: Co-immunoprecipitation of EGFP-TNV-PAs with p53 R175H in H1299 cells. The assay is classed as binding. The note with it: H1299 cells co-transfected with p53 R175H and EGFP-TNV-PAs, IP anti-GFP.

The target in another assay is T2, p53 R273H (Homo sapiens, UniProt P04637, R273H).
T2 construct: expression of full-length point mutants (hereinafter identified also as mut-p53 or mutant p53); expressed in transfected cells; host or cells: H1299 (p53-null)
The assay can be described thus: EGR1-Luc luciferase assay in H1299 cells, p53 R273H. Format: cell-based. The note with it: peptide 1.6, 4, 20 μM. How it is done:
(§1) (a) The effect of PAs on mutant p53 transactivating activity was analyzed in MG63 cells transiently transfected with Myc-Luc reporter along with constructs expressing p53 D281G or empty vector and with p[…] vectors expressing PAs or control vectors pLPC-EGFP (EGFP) or p[…] (TNV). The promoter activity measured in each experiment was normalized to the value measured in the absence of mutant p53. RLU: Relative Luciferase Units. […] Expression of mutant p53 and PAs was analyzed by Western Blot with the indicated antibodies. (b) The effect of FsA79 peptide on the transactivation of EGR1 promoter by mutant p53 was analyzed in H1299 cells, transfected with EGR1-Luc reporter along with plasmids encoding either p53R175H (left) or p53R273H (right) and treated with increasing amounts of FsA79 peptide (1.6, 4, 20 μM). […] (c) The effect of PAs on p53 wt transcriptional activity was analyzed in H1299 cells transfected with p21-Luc reporter, wt p53-expressing vector or empty vector along with constructs expressing the EGFP-TNV-PAs or control vectors as in (a). […] (d) The effect of PAs on the transcriptional activity of TAp73α was analyzed as in (c). […] (e) The effect of PAs on p53 wt transcriptional activity was analyzed in H1299 cells transfected with Bax-Luc reporter, wt-p53 expressing vector or empty vector together with constructs expressing EGFP-TNV-PAs or control vectors as in FIG. 3(c). […]

The target in assay [2] is T1, p53 R175H. As to the kind of experiment: EGR1-Luc luciferase assay in H1299 cells, p53 R175H. Format: cell-based. As to conditions: peptide 1.6, 4, 20 μM. How it is done:
as §1

Assay [3] deals with Sk-Br-3 cells. As to the kind of experiment: PARP cleavage (p85) by Western Blot in Sk-Br-3 cells. Format: cell-based. For orientation: Immunoblotting shows a protein as a band on a membrane.
Description: (a) The apoptotic effect of PAs was analyzed in U20S (expressing p53 wt), H1299 (p53 null), Sk-Br-3 (expressing p53R175H) and MDA-MB-468 (expressing p53R273H) cells. Cells were transfected either with constructs expressing EGFP-TNV-PAs or with pLPCcontrol vector, harvested after 36 hours and stained with propidium iodide before analyzing the DNA content of EGFP-positive cells by flow cytometry. Histograms represent the average and the s.d. of the percentage of cells with sub-G1 DNA content measured in three independent experiments. […] At least 10000 EGFP-positive cells were analyzed in each acquisition. Histograms represent the average and s.d. of three independent experiments. […] Expression of the overexpressed EGFP-TNV-PAs as well as endogenous cleaved PARP (p85), p53R175H and the proapoptotic protein Bax was analyzed by Western Blot with the indicated antibodies. […] FACS analysis of DNA content was then performed as in (a). Aliquots of cell lysates untreated (NT) or treated with 50 μM Etoposide (Eto) were analyzed by Western Blot. […] Cells were transfected with EGFP-PAs and then left untreated or treated with 100 μM PRIMA-1. After additional 20 hours cells were harvested and analyzed as in FIG. 4(a). […]
To specifically evaluate the effect on cells expressing the aptamers, propidium-iodide staining was measured only in the GFP positive population.
For assay [4], the system named is Sk-Br-3 cells. As to the kind of experiment: AnnexinV-PE-Cyan5 staining by flow cytometry, Sk-Br-3 cells. As to conditions: Sk-Br-3, GFP positive cells, 36 hours after transfection. Format: cell-based. How it is done:
(§2) (a) The apoptotic effect of PAs was analyzed in U20S (expressing p53 wt), H1299 (p53 null), Sk-Br-3 (expressing p53R175H) and MDA-MB-468 (expressing p53R273H) cells. Cells were transfected either with constructs expressing EGFP-TNV-PAs or with pLPCcontrol vector, harvested after 36 hours and stained with propidium iodide before analyzing the DNA content of EGFP-positive cells by flow cytometry. Histograms represent the average and the s.d. of the percentage of cells with sub-G1 DNA content measured in three independent experiments. […] At least 10000 EGFP-positive cells were analyzed in each acquisition. Histograms represent the average and s.d. of three independent experiments. […] Expression of the overexpressed EGFP-TNV-PAs as well as endogenous cleaved PARP (p85), p53R175H and the proapoptotic protein Bax was analyzed by Western Blot with the indicated antibodies. (d) Analysis of AnnexinV-PE-Cyan5 binding of MDA-MB-468 cells treated and analyzed as described in FIG. 4(c). […] Aliquots of cell lysates untreated (NT) or treated with 50 μM Etoposide (Eto) were analyzed by Western Blot. […] After additional 20 hours cells were harvested and analyzed as in FIG. 4(a).
(§3) Sk-Br-3, MDA-MB-468, H1299 or U20S cells were seeded in 6 wells and transfected with pLPCEGFP-TNV16mers or pLPCEGFP-TNV or pLPC. […] Cells were analyzed by cytofluorimeter (FACScalibur) after additional 20 minutes.
For orientation: Flow cytometry measures light scatter and fluorescence of single cells or particles in a stream.

The test system of the next assay is MDA-MB-468 cells. The assay can be described thus: AnnexinV-PE-Cyan5 staining by flow cytometry, MDA-MB-468 cells. As to conditions: MDA-MB-468, GFP positive cells, 36 hours after transfection. Format: cell-based. How it is done: as §2, §3
In assay [5] the test system is Sk-Br-3 cells. The assay can be described thus: FACS analysis of DNA content (propidium iodide) of EGFP-positive Sk-Br-3 cells. Format: cell-based. How it is done: (a) The apoptotic effect of PAs was analyzed in U20S (expressing p53 wt), H1299 (p53 null), Sk-Br-3 (expressing p53R175H) and MDA-MB-468 (expressing p53R273H) cells. Cells were transfected either with constructs expressing EGFP-TNV-PAs or with pLPCcontrol vector, harvested after 36 hours and stained with propidium iodide before analyzing the DNA content of EGFP-positive cells by flow cytometry. Histograms represent the average and the s.d. of the percentage of cells with sub-G1 DNA content measured in three independent experiments. […] At least 10000 EGFP-positive cells were analyzed in each acquisition. Histograms represent the average and s.d. of three independent experiments. […] Expression of the overexpressed EGFP-TNV-PAs as well as endogenous cleaved PARP (p85), p53R175H and the proapoptotic protein Bax was analyzed by Western Blot with the indicated antibodies. (d) Analysis of AnnexinV-PE-Cyan5 binding of MDA-MB-468 cells treated and analyzed as described in FIG. 4(c). […] FACS analysis of DNA content was then performed as in (a). Aliquots of cell lysates untreated (NT) or treated with 50 μM Etoposide (Eto) were analyzed by Western Blot. […] Cells were transfected with EGFP-PAs and then left untreated or treated with 100 μM PRIMA-1. After additional 20 hours cells were harvested and analyzed as in FIG. 4(a).
Sk-Br-3, MDA-MB-468, H1299 or U20S cells were seeded in 6 wells and transfected with pLPCEGFP-TNV16mers or pLPCEGFP-TNV or pLPC. For cell cycle analysis, cells were collected by trypsinization, recovering also the supernatants, and resuspended in PBS/0.1% Nonidet P-40 (NP-40) containing 2 μg/ml RnaseA. 10 min later, 10 μg/ml propidium iodide was added. Cells were analyzed by cytofluorimeter (FACScalibur) after additional 20 minutes.

The next assay deals with T3, TAp73α (Homo sapiens, UniProt O15350).
T3 construct: expressed in transfected cells; host or cells: H1299
T3 sequence (O15350 1-636): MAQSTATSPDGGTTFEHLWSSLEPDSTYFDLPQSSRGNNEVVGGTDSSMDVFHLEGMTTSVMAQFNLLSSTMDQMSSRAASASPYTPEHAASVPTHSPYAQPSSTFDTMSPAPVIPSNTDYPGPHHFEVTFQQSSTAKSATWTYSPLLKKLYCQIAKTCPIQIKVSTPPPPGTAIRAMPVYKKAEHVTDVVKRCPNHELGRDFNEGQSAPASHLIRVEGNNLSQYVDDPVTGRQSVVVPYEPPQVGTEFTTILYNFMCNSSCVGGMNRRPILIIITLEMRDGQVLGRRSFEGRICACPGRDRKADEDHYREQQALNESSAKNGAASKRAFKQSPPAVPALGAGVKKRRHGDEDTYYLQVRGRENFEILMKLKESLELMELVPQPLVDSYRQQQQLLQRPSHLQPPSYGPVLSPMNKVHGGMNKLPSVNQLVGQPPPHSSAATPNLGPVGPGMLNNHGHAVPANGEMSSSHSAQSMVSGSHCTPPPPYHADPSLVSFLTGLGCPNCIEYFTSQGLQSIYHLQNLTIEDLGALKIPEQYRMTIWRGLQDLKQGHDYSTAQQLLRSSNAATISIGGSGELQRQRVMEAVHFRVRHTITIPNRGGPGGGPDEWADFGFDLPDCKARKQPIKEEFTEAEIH
The assay can be described thus: Bax-Luc luciferase assay in H1299 cells, TAp73α. Format: cell-based. How it is done:
(§4) (a) The effect of PAs on mutant p53 transactivating activity was analyzed in MG63 cells transiently transfected with Myc-Luc reporter along with constructs expressing p53 D281G or empty vector and with pLPC-EGFP-TNV vectors expressing PAs or control vectors pLPC-EGFP (EGFP) or pLPC-EGFP-TNV (TNV). The promoter activity measured in each experiment was normalized to the value measured in the absence of mutant p53. RLU: Relative Luciferase Units. […] Expression of mutant p53 and PAs was analyzed by Western Blot with the indicated antibodies. (b) The effect of FsA79 peptide on the transactivation of EGR1 promoter by mutant p53 was analyzed in H1299 cells, transfected with EGR1-Luc reporter along with plasmids encoding either p53R175H (left) or p53R273H (right) and treated with increasing amounts of FsA79 peptide (1.6, 4, 20 μM). Luciferase assays were performed and represented as in (a). (c) The effect of PAs on p53 wt transcriptional activity was analyzed in H1299 cells transfected with p21-Luc reporter, wt p53-expressing vector or empty vector along with constructs expressing the EGFP-TNV-PAs or control vectors as in (a). Luciferase assays were performed and represented as in (a). (d) The effect of PAs on the transcriptional activity of TAp73α was analyzed as in (c). […] (f) Effect of PAs on TAp73a transcriptional activity on Bax-Luc reporter was analyzed as described in FIG. 3(d). […]

A further assay deals with T4, wild-type p53 (Homo sapiens, UniProt P04637).
T4 construct: expressed in transfected cells; host or cells: H1299
As to the kind of experiment: Bax-Luc luciferase assay in H1299 cells, wild-type p53. The assay is classed as cell-based. How it is done: as §4

The next assay concerns the target T5, p53 D281G (Homo sapiens, UniProt P04637, D281G).
T5 construct: expression of full-length point mutants (hereinafter identified also as mut-p53 or mutant p53); expressed in transfected cells; host or cells: MG63 (p53-null)
The assay can be described thus: c-Myc-Luc luciferase assay in MG63 cells. As to conditions: EGFP-TNV-PAs, 36 hours. Format: cell-based. How it is done:
as §1

No end group written: not given here. Ahx = NCCCCCC(=O)O

With AKYCQCAAKVRVTAAM [A3], the “binding to p53 R175H by co-immunoprecipitation” value (from here on “binding to p53 R175H”) with p53 R175H [1] is recorded as “showed a stronger interaction with p53 R175H”.

On to “FAM-Ahx-peptide sA79 ({FAM-Ahx}-DVADWESCGEYWCYRV; cysteine pairing not given here) [FsA79, fluoresceinated version of sA79 peptide]”, for which the “effect on transactivation of EGR1-Luc reporter by p53 R273H” value with p53 R273H is recorded as “inhibits the transactivation activity of both mutants”. For the same substance, the “effect on transactivation of EGR1-Luc reporter by p53 R175H” value with p53 R175H [2] is “inhibits the transactivation activity of both mutants”.

Turning to GPVVPRTQYMSLAFGW [A29], the “cleaved p85 fragment of PARP-1” value with Sk-Br-3 cells [3] was “evident increase”. Further, the AnnexinV positive cells entry in the assay on Sk-Br-3 cells [4] and in the assay with MDA-MB-468 cells was “approximately 30%” each time. The “binding to p53 R175H” value in the assay with p53 R175H [1] is on record as “showed a stronger interaction with p53 R175H”. Besides, the “apoptotic response (sub-G1) compared with Etoposide treatment alone” value with Sk-Br-3 cells [5] (Sk-Br-3) was “comparable to that observed upon drug treatment alone”. Moreover, the “sub-G1 peak compared with PRIMA-1” value with Sk-Br-3 cells [5] (Sk-Br-3, PRIMA-1 100 μM for 20 hours) is “comparable to that induced by PRIMA-1”.

“IQITLTGWSARVTTSG [A60, 16mer peptide aptamer in thioredoxin scaffold; free peptide not synthetized]”: in the assay with TAp73α, the “effect on transactivation activity of p73 on Bax-Luc reporter” value was “all aptamers, but A60, do not significantly affect”. Besides, the “effect on transactivation activity of wild-type p53 on Bax-Luc reporter” value in the assay with wild-type p53 was “all aptamers, but A60, do not significantly affect”. Besides, in the assay with p53 R175H [1], the “binding to p53 R175H” value is “showed a stronger interaction with p53 R175H”.

For the substance “QRGLYCSCVTNQNAEV [B6, reference compound]”, the “effect on transactivation activity of mutant p53 on c-Myc-Luc reporter” value with p53 D281G is recorded as “did not showed any effect”. Also, the AnnexinV positive cells result in the assay with Sk-Br-3 cells [4] and with MDA-MB-468 cells was “less than 15%” each time. The “sub-G1 peak (apoptotic cell death)” value in the assay on Sk-Br-3 cells [5] (Sk-Br-3 (p53 R175H), GFP positive population, 36 hours after transfection) was “unable to induce apoptosis”.

As for VWAESCDDCGEYWRYV [A79], the “binding to p53 R175H” value with p53 R175H [1] is recorded as “showed a stronger interaction with p53 R175H”.

These data come from US8822420B2, “Peptides and aptamers thereof as specific modulators of mutant p53 function” (Universita Degli Studi di Trieste, priority 2008, dated 2014).
